Assay results reported in the supplement of paper PMC5998384.

Tests used:
[1] = tested on: HeLa Kyoto; assay: solubility in G1/S (NP-40 vs SDS abundance) (log2 ratio); higher = more soluble; conditions: cell cycle stage: G1/S
[2] = tested on: HeLa Kyoto; assay: solubility change mitosis vs G1/S (difference of NP-40 vs SDS log2 ratios) (log2 ratio difference); higher = more soluble in mitosis
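Wherever solubility change mitosis vs G1/S (difference of NP-40 vs SDS log2 ratios) is given: synchronized HeLa Kyoto cells (double thymidine block for G1/S, nocodazole release for mitosis), protein amounts in NP-40 versus SDS lysates quantified by mass spectrometry, three biological replicates.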
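Wherever solubility in G1/S (NP-40 vs SDS abundance) is given: HeLa Kyoto cells arrested at G1/S by double thymidine block, proteins quantified by TMT10plex mass spectrometry in mild NP-40 versus SDS extracts, three biological replicates.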

Sequence | solubility in G1/S (log2) [1] | solubility change mitosis (log2) [2]
MNRHLCVWLFRHPSLNGYLQCHIQLHSHQFRQIHLDTRLQVFRQNRNCILHLLSKNWSRRYCHQDTKMLWKHKALQKYMENLSKEYQTLEQCLQHIPVNEENRRSLNRRHAELAPLAAIYQEIQETEQAIEELESMCKSLNKQDEKQLQELALEERQTIDQKINMLYNELFQSLVPKEKYDKNDVILEVTAGRTTGGDICQQFTREIFDMYQNYSCYKHWQFELLNYTPADYGGLHHAAARISGDGVYKHLKYEGGIHRVQRIPEVGLSSRMQRIHTGTMSVIVLPQPDEVDVKLDPKDLRIDTFRAKGAGGQHVNKTDSAVRLVHIPTGLVVECQQERSQIKNKEIAFRVLRARLYQQIIEKDKRQQQSARKLQVGTRAQSERIRTYNFTQDRVSDHRIAYEVRDIKEFLCGGKGLDQLIQRLLQSADEEAIAELLDEHLKSAK [MTRF1] | 0.228 | -0.0209
MNSSSANITYASRKRRKPVQKTVKPIPAEGIKSNPSKRHRDRLNTELDRLASLLPFPQDVINKLDKLSVLRLSVSYLRAKSFFDVALKSSPTERNGGQDNCRAANFREGLNLQEGEFLLQALNGFVLVVTTDALVFYASSTIQDYLGFQQSDVIHQSVYELIHTEDRAEFQRQLHWALNPSQCTESGQGIEEATGLPQTVVCYNPDQIPPENSPLMERCFICRLRCLLDNSSGFLAMNFQGKLKYLHGQKKKGKDGSILPPQLALFAIATPLQPPSILEIRTKNFIFRTKHKLDFTPIGCDAKGRIVLGYTEAELCTRGSGYQFIHAADMLYCAESHIRMIKTGESGMIVFRLLTKNNRWTWVQSNARLLYKNGRPDYIIVTQRPLTDEEGTEHLRKRNTKLPFMFTTGEAVLYEATNPFPAIMDPLPLRTKNGTSGKDSATTSTLSKDSLNPSSLLAAMMQQDESIYLYPASSTSSTAPFENNFFNESMNECRNWQDNTAPMGNDTILKHEQIDQPQDVNSFAGGHPGLFQDSKNSDLYSIMKNLGIDFEDIRHMQNEKFFRNDFSGEVDFRDIDLTDEILTYVQDSLSKSPFIPSDYQQQQSLALNSSCMVQEHLHLEQQQQHHQKQVVVEPQQQLCQKMKHMQVNGMFENWNSNQFVPFNCPQQDPQQYNVFTDLHGISQEFPYKSEMDSMPYTQNFISCNQPVLPQHSKCTELDYPMGSFEPSPYPTTSSLEDFVTCLQLPENQKHGLNPQSAIITPQTCYAGAVSMYQCQPEPQHTHVGQMQYNPVLPGQQAFLNKFQNGVLNETYPAELNNINNTQTTTHLQPLHHPSEARPFPDLTSSGFL [AHR] | -0.135 | -0.105
MNYPGRGSPRSPEHNGRGGGGGAWELGSDARPAFGGGVCCFEHLPGGDPDDGDVPLALLRGEPGLHLAPGTDDHNHHLALDPCLSDENYDFSSAESGSSLRYYSEGESGGGGSSLSLHPPQQPPLVPTNSGGGGATGGSPGERKRTRLGGPAARHRYEVVTELGPEEVRWFYKEDKKTWKPFIGYDSLRIELAFRTLLQTTGARPQGGDRDGDHVCSPTGPASSSGEDDDEDRACGFCQSTTGHEPEMVELVNIEPVCVRGGLYEVDVTQGECYPVYWNQADKIPVMRGQWFIDGTWQPLEEEESNLIEQEHLNCFRGQQMQENFDIEVSKSIDGKDAVHSFKLSRNHVDWHSVDEVYLYSDATTSKIARTVTQKLGFSKASSSGTRLHRGYVEEATLEDKPSQTTHIVFVVHGIGQKMDQGRIIKNTAMMREAARKIEERHFSNHATHVEFLPVEWRSKLTLDGDTVDSITPDKVRGLRDMLNSSAMDIMYYTSPLYRDELVKGLQQELNRLYSLFCSRNPDFEEKGGKVSIVSHSLGCVITYDIMTGWNPVRLYEQLLQKEEELPDERWMSYEERHLLDELYITKRRLKEIEERLHGLKASSMTQTPALKFKVENFFCMGSPLAVFLALRGIRPGNTGSQDHILPREICNRLLNIFHPTDPVAYRLEPLILKHYSNISPVQIHWYNTSNPLPYEHMKPSFLNPAKEPTSVSENEGISTIPSPVTSPVLSRRHYGESITNIGKASILGAASIGKGLGGMLFSRFGRSSTTQSSETSKDSMEDEKKPVASPSATTVGTQTLPHSSSGFLDSAYFRLQESFFNLPQLLFPENVMQNKDNALVELDHRIDFELREGLVESRYWSAVTSHTAYWSSLDVALFLLTFMYKHEHDDDAKPNLDPI [DDHD1] | -0.175 | 0.134
MPALACLRRLCRHVSPQAVLFLLFIFCLFSVFISAYYLYGWKRGLEPSADAPEPDCGDPPPVAPSRLLPLKPVQAATPSRTDPLVLVFVESLYSQLGQEVVAILESSRFKYRTEIAPGKGDMPTLTDKGRGRFALIIYENILKYVNLDAWNRELLDKYCVAYGVGIIGFFKANENSLLSAQLKGFPLFLHSNLGLKDCSINPKSPLLYVTRPSEVEKGVLPGEDWTVFQSNHSTYEPVLLAKTRSSESIPHLGADAGLHAALHATVVQDLGLHDGIQRVLFGNNLNFWLHKLVFVDAVAFLTGKRLSLPLDRYILVDIDDIFVGKEGTRMKVEDVKALFDTQNELRAHIPNFTFNLGYSGKFFHTGTNAEDAGDDLLLSYVKEFWWFPHMWSHMQPHLFHNQSVLAEQMALNKKFAVEHGIPTDMGYAVAPHHSGVYPVHVQLYEAWKQVWSIRVTSTEEYPHLKPARYRRGFIHNGIMVLPRQTCGLFTHTIFYNEYPGGSSELDKIINGGELFLTVLLNPISIFMTHLSNYGNDRLGLYTFKHLVRFLHSWTNLRLQTLPPVQLAQKYFQIFSEEKDPLWQDPCEDKRHKDIWSKEKTCDRFPKLLIIGPQKTGTTALYLFLGMHPDLSSNYPSSETFEEIQFFNGHNYHKGIDWYMEFFPIPSNTTSDFYFEKSANYFDSEVAPRRAAALLPKAKVLTILINPADRAYSWYQHQRAHDDPVALKYTFHEVITAGSDASSKLRALQNRCLVPGWYATHIERWLSAYHANQILVLDGKLLRTEPAKVMDMVQKFLGVTNTIDYHKTLAFDPKKGFWCQLLEGGKTKCLGKSKGRKYPEMDLDSRAFLKDYYRDHNIELSKLLYKMGQTLPTWLREDLQNTR [NDST1] | -0.0442 | -0.0111
MPGVARLPLLLGLLLLPRPGRPLDLADYTYDLAEEDDSEPLNYKDPCKAAAFLGDIALDEEDLRAFQVQQAVDLRRHTARKSSIKAAVPGNTSTPSCQSTNGQPQRGACGRWRGRSRSRRAATSRPERVWPDGVIPFVIGGNFTGSQRAVFRQAMRHWEKHTCVTFLERTDEDSYIVFTYRPCGCCSYVGRRGGGPQAISIGKNCDKFGIVVHELGHVVGFWHEHTRPDRDRHVSIVRENIQPGQEYNFLKMEPQEVESLGETYDFDSIMHYARNTFSRGIFLDTIVPKYEVNGVKPPIGQRTRLSKGDIAQARKLYKCPACGETLQDSTGNFSSPEYPNGYSAHMHCVWRISVTPGEKIILNFTSLDLYRSRLCWYDYVEVRDGFWRKAPLRGRFCGSKLPEPIVSTDSRLWVEFRSSSNWVGKGFFAVYEAICGGDVKKDYGHIQSPNYPDDYRPSKVCIWRIQVSEGFHVGLTFQSFEIERHDSCAYDYLEVRDGHSESSTLIGRYCGYEKPDDIKSTSSRLWLKFVSDGSINKAGFAVNFFKEVDECSRPNRGGCEQRCLNTLGSYKCSCDPGYELAPDKRRCEAACGGFLTKLNGSITSPGWPKEYPPNKNCIWQLVAPTQYRISLQFDFFETEGNDVCKYDFVEVRSGLTADSKLHGKFCGSEKPEVITSQYNNMRVEFKSDNTVSKKGFKAHFFSDKDECSKDNGGCQQDCVNTFGSYECQCRSGFVLHDNKHDCKEAGCDHKVTSTSGTITSPNWPDKYPSKKECTWAISSTPGHRVKLTFMEMDIESQPECAYDHLEVFDGRDAKAPVLGRFCGSKKPEPVLATGSRMFLRFYSDNSVQRKGFQASHATECGGQVRADVKTKDLYSHAQFGDNNYPGGVDCEWVIVAEEGYGVELVFQTFEVEEETDCGYDYMELFDGYDSTAPRLGRYCGSGPPEEVYSAGDSVLVKFHSDDTITKKGFHLRYTSTKFQDTLHSRK [BMP1] | -0.299 | -0.301
